Data on four substances can be found in patent US20260232826A1, “ANTIBODY-DRUG CONJUGATES AND THEIR USES” (Mablink Bioscience, priority 2022, published 2026).

“Also recorded” adds a separate entry of the source.

The target of assay [1] is T1, extracellular human FRα expressed on cancerous cell lines (Homo sapiens, UniProt P15328).
T1 construct: endogenous in cells; host or cells: human cancer cell lines (ATCC/DSMZ/ECACC); BT-474 as FRα-negative control
Put plainly: Cell-binding affinity by flow cytometry. The note with it: APC-labelled antibody or ADC, flow cytometry (FIG. 6). Here is the method:
Antibody or ADC binding to extracellular human FRα expressed on cancerous cell lines is assessed by flow cytometry. Tested antibody or ADC is conjugated to APC fluorophore using LYNX Rapid APC Antibody Conjugation Kit according to the manufacturer's protocol (Bio-Rad, Cat #LNK032APC). Into 500000 cells (suspended in 100 μL of PBS in flow cytometry plastic tubes) is added 5 μL of a 10 μg/mL solution of tested APC-labelled antibody or ADC. Cells are incubated 20 min in the dark, are washed with PBS 3 times by centrifugation and are re-suspended in 200 μL of PBS for analysis. Flow cytometry is performed using a BD Fortessa flow cytometer controlled by BD FACSDiva software (BD Biosciences) and data are analyzed using FlowJo software (BD Bioscience).
Antibody or ADC binding to extracellular human FRα expressed on cancerous cell lines was assessed by flow cytometry. Tested antibody or ADC was conjugated to APC fluorophore using LYNX Rapid APC Antibody Conjugation Kit according to the manufacturer's protocol (Bio-Rad, Cat #LNK032APC). Into 500000 cells (suspended in 100 μL of PBS in flow cytometry plastic tubes) was added 5 μL of a 10 μg/mL solution of tested APC-labelled antibody or ADC. Cells were incubated 20 min in the dark, were washed with PBS 3 times by centrifugation and were re-suspended in 200 μL of PBS for analysis. Flow cytometry was performed using a BD Fortessa flow cytometer controlled by BD FACSDiva software (BD Biosciences) and data were analyzed using FlowJo software (BD Bioscience).
On the technique in general: In flow cytometry, cells or beads pass a laser one at a time.

Assay [2] has as its target T2, recombinant human FRα (Homo sapiens, UniProt P15328).
T2 construct: purchased Sino Biological 11241-H08H
Put plainly: Recombinant FRα-binding affinity by ELISA (human). The note with it: FIG. 4A/4B. Here is the method: Sandwich ELISA assays are performed using 96-well high-binding ELISA plates (Corning Inc., New York, NY, USA, Cat #3590). Plates are coated using 100 µL/well of recombinant human FRα protein (Sino Biological cat #11241-H08H) in PBS (pH 7.4) at 2 μg/mL and incubated overnight at 4° C. After 2 washes with PBS-T (PBS+0.05% Tween-20), the plates are blocked with 200 μL/well of incubation buffer (PBS-T+0.1% BSA) for 1 h at room temperature. The plates are washed 4 times with PBS-T, and 100 μL of a threefold dilution series of tested compound (antibody or antibody-drug conjugate) is added. Then, the plates are incubated for 2 h at room temperature in the dark. After 5 washes with PBS-T, plates are incubated 1 h at room temperature with 100 μL/well of a goat anti-human IgG (H+L) HRP conjugated antibody (Jackson Immunoresearch cat #109-035-088), previously diluted 1:250000 in incubation buffer. After 5 washes with PBS-T, TMB substrate solution (Thermo-Fisher cat #N301) is added. Peroxidase activity is stopped with 0.18M H2SO4 and absorbance is read at 450 nm (reference wavelength 650 nm) using a Thermo Scientific MultiSkan EX microplate reader. Sigmoidal fittings were performed using GraphPad Prism 9 software.
Sandwich ELISA assays were performed using 96-well high-binding ELISA plates (Corning Inc., New York, NY, USA, Cat #3590). Plates were coated using 100 μL/well of recombinant human FRα protein (Sino Biological cat #11241-H08H); recombinant cynomolgus FRα protein (Sino Biological cat #90950-C08H); recombinant rat FRα protein (Sino Biological cat #81073-R08H) or recombinant mouse FRα protein (Sino Biological cat #50573-M08H) in PBS (pH 7.4) at 2 μg/mL and incubated overnight at 4° C. After 2 washes with PBS-T (PBS+0.05% Tween-20), the plates were blocked with 200 μL/well of incubation buffer (PBS-T+0.1% BSA) for 1 h at room temperature. […] Peroxidase activity was stopped with 0.18M H2SO4 and absorbance was read at 450 nm (reference wavelength 650 nm) using a Thermo Scientific MultiSkan EX microplate reader. […]

The target in assay [3] is T2, recombinant human FRα. Put plainly: Human FRα-binding affinity by SPR (Biacore). The note with it: Biacore T200, 25° C. (FIG. 5). Here is the method: Surface plasmon resonance (SPR) experiments are performed on a Biacore T200 apparatus, at 25° C. Tested antibody or ADC are captured at low density (300-500 RU) on a CM5 series S sensorchip, beforehand functionalized with a Human Antibody Capture kit (Cytiva cat #BR100839). A functionalized surface/flow cell treated similarly but omitting ligand is used as reference. To measure kinetics rates and affinities, recombinant human FRα (Sino Biological cat #11241-H08H) analyte sample is injected in duplicates at 5 concentrations (0.5, 1, 2, 4, 8 nM) in series using single cycle kinetics strategy and at constant […] flow rate of running buffer (HBS-EP+, Cytiva cat #BR100669) with contact pulses of 300 sec. The dissociation phase is measured by injection of running buffer for 900 sec. Between duplicates, surfaces/flow cells are regenerated with 3M MgCl2 to remove both analyte and ligand, and fresh ligand capture are done using identical conditions. The data analysis is performed using the Biacore Evaluation software after subtraction of reference surface and analyte zero-concentration signals. […]
Surface plasmon resonance (SPR) experiments were performed on a Biacore T200 apparatus, at 25° C. […] The dissociation phase was measured by injection of running buffer for 900 sec. […]

Assay [4] deals with FRα positive cancerous cell lines. In words: In vitro cytotoxicity assay (MTT) on FRα+ cancerous cell lines. The class given is cell-based, Human. The note with it: 144 hours incubation, several FRα positive cell lines (FIG. 3). Here is the method: In vitro cytotoxicity of compound exatecan mesylate was assessed on several FRα positive cancerous cell lines. Cells were plated in 96-well plates at an appropriate density depending on the cell line (between 1000 and 10000 cells/well in 100 μL of appropriate culture media) and incubated at 37° C. for 24 hours. Serial dilutions of the tested compound previously dissolved in culture media (50 μL) were added, and incubation was carried at 37° C. out for 144 hours. MTT (5 mg/mL, 20 μL, Sigma-Aldrich) was added into the wells, and incubation was continued for 1 to 2 hours at 37° C. Culture media was then carefully removed, and well content was homogeneously dissolved with acidified isopropanol. Absorbance values were measured on a Multiskan™ Sky microplate reader (Thermo Scientific) using a wavelength of 570 nm (with a reference wavelength of 690 nm). The IC50 concentration values compared to untreated control cells were determined using inhibition dose response curve fitting (GraphPad Prism 9).

T2 sequence (P15328 25-234): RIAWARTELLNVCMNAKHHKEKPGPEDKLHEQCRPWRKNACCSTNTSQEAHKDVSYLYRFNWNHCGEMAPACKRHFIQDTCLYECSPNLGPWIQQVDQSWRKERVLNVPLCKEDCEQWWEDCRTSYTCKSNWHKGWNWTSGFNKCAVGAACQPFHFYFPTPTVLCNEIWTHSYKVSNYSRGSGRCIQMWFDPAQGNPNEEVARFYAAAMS
T1 sequence (P15328 25-234): as above

As for “mirvetuximab: humanized anti-FRα antibody, heavy chain SEQ ID NO:16, light chain SEQ ID NO:17”, the “human FRα cell binding” value in assay [1] is listed as “binding affinity appeared identical”. The “recombinant human FRα binding (ELISA), in words” value with recombinant human FRα [2] is reported as “No significant loss of binding”.

Regarding “farletuzumab: anti-FRα IgG1 antibody, heavy chain SEQ ID NO:11, light chain SEQ ID NO:10”, the “recombinant human FRα binding (SPR), in words” value with recombinant human FRα [3] was “No loss of binding”. In assay [1], the “human FRα cell binding” value is given as “Comparable human FRα cell binding; also recorded: binding affinity appeared identical”. Besides, in the assay with recombinant human FRα [2], the “recombinant human FRα binding (ELISA), in words” value is reported as “No loss of binding”.

For Exatecan Mesylate, in assay [4], the “IC50's in vitro potencies” value was “sub-nM to low-nM”.

On to “farletuzumab-LALA: Fc-silent farletuzumab with L234A and L235A mutations, heavy chain SEQ ID NO:9, light chain SEQ ID NO:10”, for which the “recombinant human FRα binding (SPR), in words” value in the assay with recombinant human FRα [3] is “No loss of binding”. Besides, in assay [1], the “human FRα cell binding” value is recorded as “Comparable human FRα cell binding”. Further, the “recombinant human FRα binding (ELISA), in words” value in the assay with recombinant human FRα [2] is listed as “No loss of binding”.
